The target of assay [1] is His-tag-fused full-length wild-type CraCRY (C. reinhardtii animal-like cryptochrome) (C. reinhardtii). The assay can be described thus: SEC; lit (blue light); inline SEC of the SAXS runs, Superdex 200, 50 mM HEPES pH 7.4, 150 mM NaCl, 5% glycerol, 25 °C, 2 to 10 mg/mL. Background: SEC sorts molecules by how far they enter the pores of the column.
For assay [2], the target named is His-tag-fused PHR domain of CraCRY (M1-A489) (C. reinhardtii). The assay is described as above.
Assay [3] deals with Strep-tag-fused CraCRY::mCitrine (C. reinhardtii). The assay is described as follows: single-molecule photobleaching step counting; lit (blue light): photobleaching steps of CraCRY::mCitrine protein complexes counted by TIRF microscopy.
The target is the same in assay [4]. The assay can be described thus: single-molecule pull-down (TIRF colocalisation with photobleaching step counting); lit (blue light, 450 nm): Strep-tag-fused CraCRY::mCitrine tethered to the glass slide by streptavidin as bait, ROC15(GARP)::mCherry as prey.
Assay [5] has the same target. The description is as above. This is another data set of the same source.

On to “His-tag-fused full-length wild-type CraCRY (C. reinhardtii animal-like cryptochrome) (natural protein)”, for which the stoichiometry N – broadly, the number of molecules, sites or subunits per partner or assembly – in assay [1] came to 2.

“His-tag-fused PHR domain of CraCRY (M1-A489) (domain or fragment)” had a stoichiometry N in assay [2] of 2.

In assay [3], “Strep-tag-fused CraCRY::mCitrine (natural protein)” displayed a population of two-step bleaching of 25.1%. Besides, in assay [4], the dimer fraction without colocalized ROC15 was 15.5%.

B1: ROC15(GARP)::mCherry (domain or fragment)
chain: MGEEYADDGTTRAVKRPRLVWTPQLHRKFESAVIKLGEDKAVPKTIMQEMNIDGLTRENVASHLQKYRM
In assay [5], B1 yielded a fraction of interacting CraCRY (colocalization) of 23.3%; a percentage of interaction between ROC15 and CraCRY monomers of 25.1%.
